Laboratory results reported in the supplement of paper PMC10567573.

B1: SOAT1 (parent)
chain: GVLILFLTFFAFLHCWLNAFAEML
B2: C22orf15 (parent)
chain: PRGRAHLLPNPYQQDFLGLPEELR

Variants of: B1
Assay: protein stability index of a GFP-peptide fusion (GPS, HEK-293T) (PSI 1-6); higher = more stable
Conditions: c terminus: a fixed tail appended
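Note: lentivirally expressed fusions sorted by FACS into six bins by GFP to DsRed ratio, PSI derived from sequencing read proportions per bin multiplied by bin number.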

| Variant | protein stability index |
| --- | --- |
| GVLILFLTFFAFLHCNLNAFAEML | 2.59 |
| GVLILFLTFFAFLHCLLNAFAEML | 3.2 |
| GVLILFLTFFAFLHCTLNAFAEML | 3.45 |
| GVLILFLTFFAFLHCPLNAFAEML | 2.19 |
| GVLILFLTFFAFLHCSLNAFAEML | 3.04 |
| GVLILFLTFFAFLHCGLNAFAEML | 3.64 |
| GVLILFLTFFAFLHCQLNAFAEML | 2.55 |
| GVLILFLTFFAFLHCKLNAFAEML | 2.19 |
| GVLILFLTFFAFLHCDLNAFAEML | 2.4 |
| GVLILFLTFFAFLHCALNAFAEML | 2 |
| GVLILFLTFFAFLHCMLNAFAEML | 3.65 |
| GVLILFLTFFAFLHCCLNAFAEML | 2.68 |
| GVLILFLTFFAFLHCHLNAFAEML | 3.94 |
| GVLILFLTFFAFLHCVLNAFAEML | 3.12 |
| GVLILFLTFFAFLHCFLNAFAEML | 3.85 |
| GVLILFLTFFAFLHCELNAFAEML | 3.24 |
| GVLILFLTFFAFLHCYLNAFAEML | 2.31 |
| GVLILFLTFFAFLHCILNAFAEML | 2.96 |
| GVLILFLTFFAFLHCWLNAYAEML | 2.9 |
| GVLILFLTFFAFLHCWLNAWAEML | 3.57 |
| GVLILFLTFFAFLHCWLNAKAEML | 2.71 |
| GVLILFLTFFAFLHCWLNASAEML | 2.94 |
| GVLILFLTFFAFLHCWLNARAEML | 2.89 |

| Variant | protein stability index |
| --- | --- |
| GVLILFLTFFAFLHCWLNANAEML | 2.01 |
| GVLILFLTFFAFLHCWLNAMAEML | 2.85 |
| GVLILFLTFFAFLHCWLNACAEML | 2.33 |
| GVLILFLTFFAFLHCWLNAVAEML | 3.21 |
| GVLILFLTFFAFLHCWLNADAEML | 3.92 |
| GVLILFLTFFAFLHCWLNAHAEML | 3.21 |
| GVLILFLTFFAFLHCWLNAGAEML | 2.22 |
| GVLILFLTFFAFLHCWLNAIAEML | 2.67 |
| GVLILFLTFFAFLHCWLNATAEML | 1.98 |
| GVLILFLTFFAFLHCWLNALAEML | 2.56 |
| GVLILFLTFFAFLHCWLNAPAEML | 2.93 |
| GVLILFLTFFAFLHCWLNAEAEML | 2.67 |
| GVLILFLTFFAFLHCWLNAAAEML | 3.08 |
| GVLILFLTFFAFLHCWLNAFSEML | 1.84 |
| GVLILFLTFFAFLHCWLNAFDEML | 2.14 |
| GVLILFLTFFAFLHCWLNAFIEML | 2.93 |
| GVLILFLTFFAFLHCWLNAFEEML | 1.83 |
| GVLILFLTFFAFLHCWLNAFMEML | 3.62 |
| GVLILFLTFFAFLHCWLNAFVEML | 2.73 |
| GVLILFLTFFAFLHCWLNAFLEML | 1.4 |
| GVLILFLTFFAFLHCWLNAFQEML | 3.1 |
| GVLILFLTFFAFLHCWLNAFFEML | 3.12 |
| GVLILFLTFFAFLHCWLNAFKEML | 2.01 |

| Variant | protein stability index |
| --- | --- |
| GVLILFLTFFAFLHCWLNAFREML | 2.11 |
| GVLILFLTFFAFLHCWLNAFHEML | 2.98 |
| GVLILFLTFFAFLHCWLNAFNEML | 2.76 |
| GVLILFLTFFAFLHCWLNAFPEML | 2.29 |
| GVLILFLTFFAFLHCWLNAFCEML | 2.48 |
| GVLILFLTFFAFLHCWLNAFTEML | 2.29 |
| GVLILFLTFFAFLHCWLNAFYEML | 1.84 |
| GVLILFLTFFAFLHCWLNAFGEML | 2.77 |
| GVLILFLTFFAFLHMWLNAFAEML | 3.37 |
| GVLILFLTFFAFLHQWLNAFAEML | 3.3 |
| GVLILFLTFFAFLHKWLNAFAEML | 3.47 |
| GVLILFLTFFAFLHGWLNAFAEML | 2.01 |
| GVLILFLTFFAFLHRWLNAFAEML | 1.95 |
| GVLILFLTFFAFLHNWLNAFAEML | 3.02 |
| GVLILFLTFFAFLHTWLNAFAEML | 2.47 |
| GVLILFLTFFAFLHVWLNAFAEML | 2 |
| GVLILFLTFFAFLHLWLNAFAEML | 2.97 |
| GVLILFLTFFAFLHYWLNAFAEML | 2.79 |
| GVLILFLTFFAFLHWWLNAFAEML | 3.12 |
| GVLILFLTFFAFLHIWLNAFAEML | 2.55 |
| GVLILFLTFFAFLHPWLNAFAEML | 2.81 |
| GVLILFLTFFAFLHSWLNAFAEML | 1.83 |
| GVLILFLTFFAFLHFWLNAFAEML | 2.27 |

| Variant | protein stability index |
| --- | --- |
| GVLILFLTFFAFLHHWLNAFAEML | 1.99 |
| GVLILFLTFFAFLHCWLNAFAEMA | 2.69 |
| GVLILFLTFFAFLHCWLNAFAEMF | 2.23 |
| GVLILFLTFFAFLHCWLNAFAEMP | 2.68 |
| GVLILFLTFFAFLHCWLNAFAEMN | 2.98 |
| GVLILFLTFFAFLHCWLNAFAEMT | 3.04 |
| GVLILFLTFFAFLHCWLNAFAEMS | 3.29 |
| GVLILFLTFFAFLHCWLNAFAEME | 3.41 |
| GVLILFLTFFAFLHCWLNAFAEMY | 2.88 |
| GVLILFLTFFAFLHCWLNAFAEMW | 2.06 |
| GVLILFLTFFAFLHCWLNAFAEMR | 2.33 |
| GVLILFLTFFAFLHCWLNAFAEMK | 3.06 |
| GVLILFLTFFAFLHCWLNAFAEMQ | 3.14 |
| GVLILFLTFFAFLHCWLNAFAEMG | 3.4 |
| GVLILFLTFFAFLHCWLNAFAEMI | 2.63 |
| GVLILFLTFFAFLHCWLNAFAEMD | 1.75 |
| GVLILFLTFFAFLHCWLNAFAEMC | 3.67 |
| GVLILFLTFFAFLHCWLNAFAEMM | 2.72 |
| GVLILFLTFFAFLHCWLNAFAEMV | 2.75 |
| GVLILFLTFFAFLHCWANAFAEML | 2.74 |
| GVLILFLTFFAFLHCWSNAFAEML | 1.44 |
| GVLILFLTFFAFLHCWHNAFAEML | 1.87 |
| GVLILFLTFFAFLHCWGNAFAEML | 2.06 |

| Variant | protein stability index |
| --- | --- |
| GVLILFLTFFAFLHCWCNAFAEML | 2.63 |
| GVLILFLTFFAFLHCWFNAFAEML | 2.8 |
| GVLILFLTFFAFLHCWPNAFAEML | 2.22 |
| GVLILFLTFFAFLHCWVNAFAEML | 3.02 |
| GVLILFLTFFAFLHCWDNAFAEML | 2.9 |
| GVLILFLTFFAFLHCWMNAFAEML | 2.95 |
| GVLILFLTFFAFLHCWRNAFAEML | 3.44 |
| GVLILFLTFFAFLHCWKNAFAEML | 3.15 |
| GVLILFLTFFAFLHCWYNAFAEML | 3.42 |
| GVLILFLTFFAFLHCWTNAFAEML | 2.88 |
| GVLILFLTFFAFLHCWNNAFAEML | 2.84 |
| GVLILFLTFFAFLHCWQNAFAEML | 2.24 |
| GVLILFLTFFAFLHCWENAFAEML | 3.02 |
| GVLILFLTFFAFLHCWINAFAEML | 2.26 |
| GVLILFLTFFAFLHCWWNAFAEML | 2.44 |
| GVLILFLTFFAFLHCWLNNFAEML | 2.8 |
| GVLILFLTFFAFLHCWLNGFAEML | 3.14 |
| GVLILFLTFFAFLHCWLNRFAEML | 1.64 |
| GVLILFLTFFAFLHCWLNMFAEML | 3.03 |
| GVLILFLTFFAFLHCWLNHFAEML | 3.33 |
| GVLILFLTFFAFLHCWLNDFAEML | 2.85 |
| GVLILFLTFFAFLHCWLNWFAEML | 1.73 |
| GVLILFLTFFAFLHCWLNQFAEML | 2.59 |

| Variant | protein stability index |
| --- | --- |
| GVLILFLTFFAFLHCWLNSFAEML | 2.83 |
| GVLILFLTFFAFLHCWLNCFAEML | 2.73 |
| GVLILFLTFFAFLHCWLNFFAEML | 1.68 |
| GVLILFLTFFAFLHCWLNIFAEML | 2.76 |
| GVLILFLTFFAFLHCWLNVFAEML | 2.77 |
| GVLILFLTFFAFLHCWLNTFAEML | 2.82 |
| GVLILFLTFFAFLHCWLNPFAEML | 2.31 |
| GVLILFLTFFAFLHCWLNEFAEML | 3.48 |
| GVLILFLTFFAFLHCWLNLFAEML | 3.05 |
| GVLILFLTFFAFLHCWLNYFAEML | 2.29 |
| GVLILFLTFFAFLHCWLNKFAEML | 2.96 |
| GVLILFLTFFAFLHCWLDAFAEML | 1.71 |
| GVLILFLTFFAFLHCWLPAFAEML | 3.85 |
| GVLILFLTFFAFLHCWLYAFAEML | 2.61 |
| GVLILFLTFFAFLHCWLSAFAEML | 2.51 |
| GVLILFLTFFAFLHCWLKAFAEML | 2.48 |
| GVLILFLTFFAFLHCWLWAFAEML | 2.94 |
| GVLILFLTFFAFLHCWLFAFAEML | 3.51 |
| GVLILFLTFFAFLHCWLQAFAEML | 2.81 |
| GVLILFLTFFAFLHCWLMAFAEML | 2.78 |
| GVLILFLTFFAFLHCWLIAFAEML | 2.85 |
| GVLILFLTFFAFLHCWLRAFAEML | 2.55 |
| GVLILFLTFFAFLHCWLVAFAEML | 2.45 |

| Variant | protein stability index |
| --- | --- |
| GVLILFLTFFAFLHCWLTAFAEML | 3 |
| GVLILFLTFFAFLHCWLLAFAEML | 3.64 |
| GVLILFLTFFAFLHCWLCAFAEML | 1.59 |
| GVLILFLTFFAFLHCWLEAFAEML | 3.51 |
| GVLILFLTFFAFLHCWLGAFAEML | 2.52 |
| GVLILFLTFFAFLHCWLHAFAEML | 2.92 |
| GVLILFLTFFAFLHCWLNAFAESL | 3.71 |
| GVLILFLTFFAFLHCWLNAFAEFL | 2.67 |
| GVLILFLTFFAFLHCWLNAFAEGL | 2.18 |
| GVLILFLTFFAFLHCWLNAFAETL | 2.98 |
| GVLILFLTFFAFLHCWLNAFAELL | 2.88 |
| GVLILFLTFFAFLHCWLNAFAEDL | 2.29 |
| GVLILFLTFFAFLHCWLNAFAEPL | 3.44 |
| GVLILFLTFFAFLHCWLNAFAENL | 2.68 |
| GVLILFLTFFAFLHCWLNAFAEKL | 2.91 |
| GVLILFLTFFAFLHCWLNAFAERL | 2.77 |
| GVLILFLTFFAFLHCWLNAFAEWL | 2.61 |
| GVLILFLTFFAFLHCWLNAFAEAL | 2.44 |
| GVLILFLTFFAFLHCWLNAFAEQL | 2.73 |
| GVLILFLTFFAFLHCWLNAFAEEL | 1.75 |
| GVLILFLTFFAFLHCWLNAFAECL | 3.08 |
| GVLILFLTFFAFLHCWLNAFAEHL | 2.55 |
| GVLILFLTFFAFLHCWLNAFAEVL | 2.08 |

| Variant | protein stability index |
| --- | --- |
| GVLILFLTFFAFLHCWLNAFAEYL | 2.54 |
| GVLILFLTFFAFLHCWLNAFAEIL | 2.85 |
| GVLILFLTFFAFLHCWLNAFACML | 2.74 |
| GVLILFLTFFAFLHCWLNAFAHML | 3.56 |
| GVLILFLTFFAFLHCWLNAFAGML | 2.16 |
| GVLILFLTFFAFLHCWLNAFAVML | 3.24 |
| GVLILFLTFFAFLHCWLNAFAIML | 2.95 |
| GVLILFLTFFAFLHCWLNAFANML | 2.79 |
| GVLILFLTFFAFLHCWLNAFAPML | 3.59 |
| GVLILFLTFFAFLHCWLNAFADML | 2.19 |
| GVLILFLTFFAFLHCWLNAFAWML | 3.25 |
| GVLILFLTFFAFLHCWLNAFAAML | 1.99 |
| GVLILFLTFFAFLHCWLNAFARML | 1.7 |
| GVLILFLTFFAFLHCWLNAFAYML | 2.22 |
| GVLILFLTFFAFLHCWLNAFASML | 3.37 |
| GVLILFLTFFAFLHCWLNAFAFML | 3.34 |
| GVLILFLTFFAFLHCWLNAFAMML | 3.66 |
| GVLILFLTFFAFLHCWLNAFATML | 2.47 |
| GVLILFLTFFAFLHCWLNAFAQML | 2.63 |
| GVLILFLTFFAFLHCWLNAFALML | 2.92 |
| GVLILFLTFFAFLHCWLNAFAKML | 2.31 |

Variants of: B2
Assay: as above
Conditions: c terminus: a fixed tail appended

| Variant | protein stability index |
| --- | --- |
| DRGRAHLLPNPYQQDFLGLPEELR | 4.1 |
| FRGRAHLLPNPYQQDFLGLPEELR | 2.61 |
| ERGRAHLLPNPYQQDFLGLPEELR | 3.96 |
| CRGRAHLLPNPYQQDFLGLPEELR | 2.22 |
| ARGRAHLLPNPYQQDFLGLPEELR | 3.34 |
| GRGRAHLLPNPYQQDFLGLPEELR | 3.75 |
